From article PMC4436786
Several values for one entry are separate records, joined by “and”; a condition that tells them apart may be missing. Equal entries are not always repeated. Blank lines part the entries; values can stand above or below the substance they belong to.

What was measured:
[1] = target: AtSfh5 nodulin (soluble, recombinant) (Arabidopsis thaliana); experiment: SEC
[2] = target: AtSfh8 nodulin (soluble, recombinant) (Arabidopsis thaliana); experiment: SEC
[3] = target: His-tagged AtSfh1 nodulin (recombinant, solubilized in 8 M urea) (Arabidopsis thaliana); experiment: SDS-PAGE
[4] = target: His-tagged AtSfh3 nodulin (soluble, recombinant) (Arabidopsis thaliana); experiment: SEC
[5] = target: mRFP-AtSfh1 nodulin (WT) (Arabidopsis thaliana); experiment: SEC
[6] = target: mRFP-AtSfh1^E485P,Q534P nodulin (Arabidopsis thaliana); experiment: SEC
[7] = target: myc-tagged AtSfh1 nodulin (Arabidopsis thaliana); experiment: SEC

AtSfh8 nodulin (soluble, recombinant) (domain or fragment), sequence (F4IHJ0 whole entry, the tested form may be a part): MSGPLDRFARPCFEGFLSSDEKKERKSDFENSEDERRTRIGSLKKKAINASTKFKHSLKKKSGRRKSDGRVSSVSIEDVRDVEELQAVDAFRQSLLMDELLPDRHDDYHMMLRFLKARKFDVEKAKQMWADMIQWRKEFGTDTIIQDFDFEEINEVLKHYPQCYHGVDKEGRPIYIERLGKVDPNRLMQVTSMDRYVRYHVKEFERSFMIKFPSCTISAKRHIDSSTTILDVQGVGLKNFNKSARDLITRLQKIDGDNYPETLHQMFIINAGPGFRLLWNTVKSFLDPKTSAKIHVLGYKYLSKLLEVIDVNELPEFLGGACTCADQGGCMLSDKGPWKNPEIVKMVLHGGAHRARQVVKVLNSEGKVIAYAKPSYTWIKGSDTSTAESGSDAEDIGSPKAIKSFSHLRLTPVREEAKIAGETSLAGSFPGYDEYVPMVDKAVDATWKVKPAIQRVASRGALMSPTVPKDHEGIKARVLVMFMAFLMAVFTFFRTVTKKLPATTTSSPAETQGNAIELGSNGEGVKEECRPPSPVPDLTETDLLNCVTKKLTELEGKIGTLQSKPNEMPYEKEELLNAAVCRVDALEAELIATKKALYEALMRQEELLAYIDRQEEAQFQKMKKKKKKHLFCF
His-tagged AtSfh3 nodulin (soluble, recombinant) (domain or fragment), sequence (Q93ZE9 whole entry, the tested form may be a part): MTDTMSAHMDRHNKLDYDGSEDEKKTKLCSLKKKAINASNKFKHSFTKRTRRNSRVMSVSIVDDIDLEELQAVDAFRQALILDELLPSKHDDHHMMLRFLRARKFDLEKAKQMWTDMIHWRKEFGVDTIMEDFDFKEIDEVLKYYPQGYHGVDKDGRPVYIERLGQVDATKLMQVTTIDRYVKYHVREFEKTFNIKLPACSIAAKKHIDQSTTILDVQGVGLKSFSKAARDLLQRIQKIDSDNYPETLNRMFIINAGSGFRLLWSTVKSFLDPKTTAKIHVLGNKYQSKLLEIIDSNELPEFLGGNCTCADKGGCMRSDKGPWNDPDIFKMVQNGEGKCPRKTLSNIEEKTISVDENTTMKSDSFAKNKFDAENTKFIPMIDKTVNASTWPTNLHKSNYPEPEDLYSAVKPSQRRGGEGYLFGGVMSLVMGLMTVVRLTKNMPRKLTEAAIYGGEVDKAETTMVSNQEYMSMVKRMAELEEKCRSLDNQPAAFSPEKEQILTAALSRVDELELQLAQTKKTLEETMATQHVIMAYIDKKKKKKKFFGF
His-tagged AtSfh1 nodulin (recombinant, solubilized in 8 M urea) (domain or fragment), sequence (F4JLE5 whole entry, the tested form may be a part): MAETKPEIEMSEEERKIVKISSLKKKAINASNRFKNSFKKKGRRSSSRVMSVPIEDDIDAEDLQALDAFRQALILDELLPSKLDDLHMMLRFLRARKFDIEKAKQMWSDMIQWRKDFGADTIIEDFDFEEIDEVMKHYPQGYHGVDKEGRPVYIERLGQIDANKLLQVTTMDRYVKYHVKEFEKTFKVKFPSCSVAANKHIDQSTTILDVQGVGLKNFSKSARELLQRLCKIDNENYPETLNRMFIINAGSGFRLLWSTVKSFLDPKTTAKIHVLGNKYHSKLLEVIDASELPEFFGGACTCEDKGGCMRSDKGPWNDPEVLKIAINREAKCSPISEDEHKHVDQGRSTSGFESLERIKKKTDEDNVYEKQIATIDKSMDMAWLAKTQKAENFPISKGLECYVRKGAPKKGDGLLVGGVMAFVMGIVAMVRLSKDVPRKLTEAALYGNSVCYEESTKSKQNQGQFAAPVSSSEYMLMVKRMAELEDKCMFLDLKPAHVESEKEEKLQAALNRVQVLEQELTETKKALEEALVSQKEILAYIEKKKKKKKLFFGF
AtSfh5 nodulin (soluble, recombinant) (domain or fragment), sequence (Q8GXC6 whole entry, the tested form may be a part): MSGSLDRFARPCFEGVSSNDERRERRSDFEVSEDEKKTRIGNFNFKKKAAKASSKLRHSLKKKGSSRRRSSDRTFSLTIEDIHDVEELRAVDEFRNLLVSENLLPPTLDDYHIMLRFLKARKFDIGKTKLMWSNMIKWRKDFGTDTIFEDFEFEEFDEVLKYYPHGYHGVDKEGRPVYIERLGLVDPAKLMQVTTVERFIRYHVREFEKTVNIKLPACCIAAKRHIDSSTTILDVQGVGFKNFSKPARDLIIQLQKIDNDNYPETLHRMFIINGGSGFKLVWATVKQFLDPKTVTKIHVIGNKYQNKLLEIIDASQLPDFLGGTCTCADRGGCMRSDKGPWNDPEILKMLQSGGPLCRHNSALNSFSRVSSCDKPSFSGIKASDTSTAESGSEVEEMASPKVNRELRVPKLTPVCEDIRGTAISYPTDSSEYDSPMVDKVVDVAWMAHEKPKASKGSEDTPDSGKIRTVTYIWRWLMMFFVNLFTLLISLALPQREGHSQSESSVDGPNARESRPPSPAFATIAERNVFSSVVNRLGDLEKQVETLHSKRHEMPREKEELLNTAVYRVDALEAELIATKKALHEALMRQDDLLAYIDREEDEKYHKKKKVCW

- stoichiometry N [1]: 6
Substance: AtSfh5 nodulin (soluble, recombinant) (domain or fragment)

- stoichiometry N [2]: 6
Substance: AtSfh8 nodulin (soluble, recombinant) (domain or fragment)

- stoichiometry N [3]: 8
Substance: His-tagged AtSfh1 nodulin (recombinant, solubilized in 8 M urea) (domain or fragment)

- stoichiometry N [4]: 6
Substance: His-tagged AtSfh3 nodulin (soluble, recombinant) (domain or fragment)

- stoichiometry N [5]: 4
Substance: mRFP-AtSfh1 nodulin (WT) (domain or fragment)

- stoichiometry N [6]: 2
Substance: mRFP-AtSfh1^E485P,Q534P nodulin (domain or fragment)

- stoichiometry N [7]: 6 and 8
Substance: myc-tagged AtSfh1 nodulin (domain or fragment)
